Results taken from publication PMC3005887 (Research letters in biochemistry, 2009).

T1: 6Hishub alone (clathrin hub, bovine clathrin heavy chain aa1074-1675, no bound LCb) (bovine, UniProt P49951 1074-1675)
T1 sequence (looked up): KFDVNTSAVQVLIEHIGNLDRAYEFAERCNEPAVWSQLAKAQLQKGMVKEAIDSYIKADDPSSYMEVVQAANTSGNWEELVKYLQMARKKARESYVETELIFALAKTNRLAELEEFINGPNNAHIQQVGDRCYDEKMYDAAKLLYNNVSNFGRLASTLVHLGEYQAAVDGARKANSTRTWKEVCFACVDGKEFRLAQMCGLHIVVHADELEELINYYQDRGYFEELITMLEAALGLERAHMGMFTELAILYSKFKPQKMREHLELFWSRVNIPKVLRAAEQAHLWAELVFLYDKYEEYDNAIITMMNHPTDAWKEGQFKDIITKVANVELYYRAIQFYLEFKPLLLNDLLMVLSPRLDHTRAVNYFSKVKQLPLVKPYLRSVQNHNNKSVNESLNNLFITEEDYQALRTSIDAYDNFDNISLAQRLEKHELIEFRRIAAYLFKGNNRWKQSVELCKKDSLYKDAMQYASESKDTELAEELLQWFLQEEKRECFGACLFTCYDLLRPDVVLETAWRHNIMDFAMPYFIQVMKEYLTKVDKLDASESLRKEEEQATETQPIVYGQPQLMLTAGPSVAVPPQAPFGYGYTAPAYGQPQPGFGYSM

T2: 6Hishub/6HisLCb (clathrin hub with bound clathrin light chain b) (bovine, UniProt P49951 1074-1675; P04975 1-228)
T2 sequence (looked up) 1: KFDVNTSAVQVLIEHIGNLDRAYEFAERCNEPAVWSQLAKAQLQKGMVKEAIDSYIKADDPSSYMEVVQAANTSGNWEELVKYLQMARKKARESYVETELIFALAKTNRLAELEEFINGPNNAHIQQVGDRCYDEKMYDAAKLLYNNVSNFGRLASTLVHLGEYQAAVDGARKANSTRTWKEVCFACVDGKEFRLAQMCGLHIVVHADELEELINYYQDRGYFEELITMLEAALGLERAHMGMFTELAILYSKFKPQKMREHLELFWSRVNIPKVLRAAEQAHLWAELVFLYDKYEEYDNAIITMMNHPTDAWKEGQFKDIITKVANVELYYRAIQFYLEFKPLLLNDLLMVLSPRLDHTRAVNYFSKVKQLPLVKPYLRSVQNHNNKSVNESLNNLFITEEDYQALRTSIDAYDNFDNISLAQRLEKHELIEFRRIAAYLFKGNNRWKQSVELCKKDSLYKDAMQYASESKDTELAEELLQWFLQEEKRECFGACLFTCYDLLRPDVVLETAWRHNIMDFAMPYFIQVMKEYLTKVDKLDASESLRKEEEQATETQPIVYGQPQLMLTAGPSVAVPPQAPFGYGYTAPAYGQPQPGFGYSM
T2 sequence (looked up) 2: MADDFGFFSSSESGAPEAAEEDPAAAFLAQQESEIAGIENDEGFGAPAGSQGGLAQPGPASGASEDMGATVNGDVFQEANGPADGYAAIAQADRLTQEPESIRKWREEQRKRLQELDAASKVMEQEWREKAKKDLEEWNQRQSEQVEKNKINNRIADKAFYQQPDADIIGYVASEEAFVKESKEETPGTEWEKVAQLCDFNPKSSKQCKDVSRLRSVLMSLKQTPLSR


How the values were obtained:
[1] = biological target: T1, 6Hishub alone (clathrin hub, bovine …); experiment: pull-down; GST or GST-HIP1h on glutathione Sepharose 4B beads; 6HisLCb and hub premixed 3:1 at 4 C for at least 30 min; 0.4 nmol hub alone or 1.9 nmol hub/6HisLCb complex; binding buffer 50 mM Tris, 200 mM KCl, 1 mM EDTA, 1% Triton X-100, 50 mM imidazole, 0.5 mg/ml ovalbumin, pH 8.0; 4 C, 1 hour; Western blot (anti-His, CON.1, anti-GST); conditions: both partners purified
[2] = biological target: T2, 6Hishub/6HisLCb (clathrin hub with …); experiment: as above; conditions: both partners purified

Binder | binding result [1] | binding result [2]
6HisLCb (N-terminally histidine-tagged bovine clathrin light chain b with the neuronal insert) (natural protein, UniProt P04975 1-228, looked up) MADDFGFFSSSESGAPEAAEEDPAAAFLAQQESEIAGIENDEGFGAPAGSQGGLAQPGPASGASEDMGATVNGDVFQEANGPADGYAAIAQADRLTQEPESIRKWREEQRKRLQELDAASKVMEQEWREKAKKDLEEWNQRQSEQVEKNKINNRIADKAFYQQPDADIIGYVASEEAFVKESKEETPGTEWEKVAQLCDFNPKSSKQCKDVSRLRSVLMSLKQTPLSR | binds | –
GST-HIP1h (aa370-644) K511E (domain or fragment, human, UniProt O00291-1 370-644, looked up) KDEKDHLIERLYREISGLKAQLENMKTESQRVVLQLKGHVSELEADLAEQQHLRQQAADDCEFLRAELDELRRQREDTEKAQRSLSEIERKAQANEQRYSKLKEKYSELVQNHADLLRKNAEVTKQVSMARQAQVDLEREKEELEDSLERISDQGQRKTQEQLEVLESLKQELATSQRELQVLQGSLETSAQSEANWAAEFAELEKERDSLVSGAAHREEELSALRKELQDTQLKLASTEESMCQLAKDQRKMLLVGSRKAAEQVIQDALNQLEE | – | binds
GST-HIP1h (aa370-644) R500E (domain or fragment, human, UniProt O00291-1 370-644, looked up) KDEKDHLIERLYREISGLKAQLENMKTESQRVVLQLKGHVSELEADLAEQQHLRQQAADDCEFLRAELDELRRQREDTEKAQRSLSEIERKAQANEQRYSKLKEKYSELVQNHADLLRKNAEVTKQVSMAEQAQVDLEREKKELEDSLERISDQGQRKTQEQLEVLESLKQELATSQRELQVLQGSLETSAQSEANWAAEFAELEKERDSLVSGAAHREEELSALRKELQDTQLKLASTEESMCQLAKDQRKMLLVGSRKAAEQVIQDALNQLEE | – | binds

Results, then the binder that gave them:

binding result [1] | binding result [2] | Binder
– | binds | GST-HIP1h (Huntingtin-interacting protein 1, aa370-644), wild type (domain or fragment, human, UniProt O00291-1 370-644, looked up) KDEKDHLIERLYREISGLKAQLENMKTESQRVVLQLKGHVSELEADLAEQQHLRQQAADDCEFLRAELDELRRQREDTEKAQRSLSEIERKAQANEQRYSKLKEKYSELVQNHADLLRKNAEVTKQVSMARQAQVDLEREKKELEDSLERISDQGQRKTQEQLEVLESLKQELATSQRELQVLQGSLETSAQSEANWAAEFAELEKERDSLVSGAAHREEELSALRKELQDTQLKLASTEESMCQLAKDQRKMLLVGSRKAAEQVIQDALNQLEE
– | binds | GST-HIP1h (aa370-644) R508E (domain or fragment, human, UniProt O00291-1 370-644, looked up) KDEKDHLIERLYREISGLKAQLENMKTESQRVVLQLKGHVSELEADLAEQQHLRQQAADDCEFLRAELDELRRQREDTEKAQRSLSEIERKAQANEQRYSKLKEKYSELVQNHADLLRKNAEVTKQVSMARQAQVDLEEEKKELEDSLERISDQGQRKTQEQLEVLESLKQELATSQRELQVLQGSLETSAQSEANWAAEFAELEKERDSLVSGAAHREEELSALRKELQDTQLKLASTEESMCQLAKDQRKMLLVGSRKAAEQVIQDALNQLEE
